According to the supplement of paper PMC9732359:
± gives the uncertainty stated by the source.

Experiment: protein stability index of a GFP-peptide fusion (yeast GPS) (PSI 1-4); higher = more stable; sorted into four equal gates, so the index is relative within each strain
Procedure, shortened: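 Tiled 17-residue peptides from yeast proteins were fused downstream of GFP on a plasmid that also expresses Cherry, and the pooled library was carried in yeast. Mid-log cultures grown in leucine-free medium were sorted into four equal gates by GFP/Cherry fluorescence ratio. Plasmids from each gate were PCR-amplified and Illumina-sequenced, and reads were assigned to strains by barcodes. Each peptide's protein stability index is the sum, over gates, of the gate's read frequency multiplied by its gate number.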

| Sequence | protein stability index (doa10∆) | protein stability index (pdr5∆) | protein stability index (san1∆) | protein stability index (ubr1∆) |
| --- | --- | --- | --- | --- |
| FNAIDLARHLPAELDLR [RPC82] | 2.46 ± 0.09 | 2.56 ± 0.076 | 2.29 ± 0.083 | 2.99 ± 0.11 |
| GALQESVEAYLVSLFED [HHT1] | 1.42 ± 0.095 | 2.62 ± 0.12 | 2.29 ± 0.12 | 2.05 ± 0.08 |
| AQNQGGQVSMSQFNGSG [PGD1] | 3.42 ± 0.12 | 3.29 ± 0.12 | 2.93 ± 0.081 | 3.23 ± 0.076 |
| SEIIDTNTSKQFQKARN [SRB8] | 2.71 ± 0.12 | 3.01 ± 0.063 | 3.16 ± 0.056 | 2.92 ± 0.095 |
| NPNNVNVQTQYREAPVI [RET1] | 2.5 ± 0.085 | 2.73 ± 0.045 | 2.48 ± 0.1 | 2.63 ± 0.057 |
| HIVYSLLVNPDIDLETY [YML103C/NUP188] | 2.52 ± 0.049 | 2.34 ± 0.042 | 2.52 ± 0.062 | 2.45 ± 0.035 |
| KNYSRPSTAIHTSPHQP [SIR4] | 2.86 ± 0.045 | 2.72 ± 0.044 | 2.65 ± 0.053 | 2.72 ± 0.044 |
| ATMENIQKGKFTLLDFK [SRP54] | 2.98 ± 0.068 | 3.04 ± 0.081 | 2.42 ± 0.089 | 2.96 ± 0.046 |
| GRIPNVPVIVKARFVSK [RPL28] | 2.32 ± 0.025 | 2.575 ± 0.024 | 2.599 ± 0.025 | 2.648 ± 0.021 |
| HLSTYLKVYKVGDIVDI [RPL21A] | 1.22 ± 0.075 | 1.49 ± 0.061 | 1.24 ± 0.16 | 1.16 ± 0.065 |
| ACVPLLPPPEDVAFLKT [RPN1] | 2.65 ± 0.053 | 2.4 ± 0.053 | 2.79 ± 0.043 | 2.65 ± 0.048 |
| KKMGVPYAIVKGKARLG [RPL8A] | 1.87 ± 0.17 | 2.09 ± 0.16 | 2.12 ± 0.17 | – |
| AAKKRRPAAKGKNLSFK [RRP6] | 2.35 ± 0.24 | 2.77 ± 0.14 | 2.35 ± 0.2 | 2.72 ± 0.1 |
| VLVLRGTLEGHNGWVTS [ASC1] | 2.75 ± 0.15 | 2.1 ± 0.14 | 2.1 ± 0.15 | 2.76 ± 0.18 |
| LGQIGACHVEVPYVLMG [COB] | 2.05 ± 0.083 | 2.01 ± 0.066 | 1.89 ± 0.12 | 1.95 ± 0.06 |
| SCEVEEIGLLGGRYVYP [SNU114] | 3.27 ± 0.092 | 3.04 ± 0.066 | 2.85 ± 0.065 | 2.8 ± 0.06 |
| EILNLSTQELQTRAKLL [RPT5] | – | 2.18 ± 0.18 | 3.04 ± 0.091 | 3.08 ± 0.085 |
| LNAITLDGDRADKRGVL [SMC3] | 2.94 ± 0.15 | 3.1 ± 0.17 | – | 3.03 ± 0.097 |
| VDPFTRKEWFDIKAPST [RPS1A] | 2.38 ± 0.072 | 2.57 ± 0.067 | 2.55 ± 0.045 | 2.89 ± 0.06 |
| FTFGQSTSENKISEGSA [YOR098C/NUP1] | 3.71 ± 0.16 | 3.35 ± 0.084 | 2.86 ± 0.12 | 3.37 ± 0.11 |
| IMFNHARIIRSELLARD [RGR1] | 1.58 ± 0.11 | 2.17 ± 0.14 | 2.62 ± 0.14 | 2.55 ± 0.086 |
| SQVEDFTRIFLPIYDSL [SIR3] | 2.67 ± 0.059 | 2.64 ± 0.045 | 2.49 ± 0.059 | 2.36 ± 0.036 |
| EFVNGGKVVKNVLLLDS [RRP46] | 2.42 ± 0.17 | 2.02 ± 0.069 | 1.34 ± 0.2 | 1.9 ± 0.11 |
| IGTHHAGLTRSDRSLSE [BRR2] | 2.2 ± 0.11 | 2.05 ± 0.2 | 1.47 ± 0.14 | 2.62 ± 0.07 |
| HAADSQNNKPSFVFGQA [YLR335W/NUP2] | 2.91 ± 0.11 | 2.95 ± 0.092 | 2.58 ± 0.057 | 3.15 ± 0.093 |
| QTSLVRMFEKNVMLNIY [SKI6] | – | 3.17 ± 0.11 | 3.29 ± 0.13 | 3.12 ± 0.076 |
| AIEPETFTQLVSSSLYE [PUP3] | 2.35 ± 0.063 | 2.89 ± 0.068 | 2.75 ± 0.063 | 2.54 ± 0.043 |

| Sequence | protein stability index (doa10∆) | protein stability index (pdr5∆) | protein stability index (san1∆) | protein stability index (ubr1∆) |
| --- | --- | --- | --- | --- |
| SSLRKNASGNKRSGVIE [ITC1] | 2.96 ± 0.22 | 2.22 ± 0.15 | – | 2.06 ± 0.089 |
| EENPIMQTALRRLPEDE [QCR7] | 3.45 ± 0.28 | 3.52 ± 0.28 | – | 3.39 ± 0.18 |
| SKKYQLADWRIRPLSKP [RRP6] | 1.68 ± 0.048 | 1.83 ± 0.048 | 1.3 ± 0.088 | 1.99 ± 0.049 |
| TVISGDPNLELDQVGVP [RPO21] | 3.48 ± 0.23 | 3.2 ± 0.13 | 2.48 ± 0.23 | 3.04 ± 0.16 |
| FSSKNEWRKSAIANTLL [PRP8] | 2.99 ± 0.056 | 2.79 ± 0.045 | 2.94 ± 0.053 | 2.72 ± 0.045 |
| QQQTSTFNSKPVRTIVP [SIR4] | 2.38 ± 0.032 | 2.77 ± 0.036 | 2.6 ± 0.039 | 2.58 ± 0.028 |
| GDHNKLRSTIANLLQIN [YML103C/NUP188] | 2.27 ± 0.054 | 2.35 ± 0.069 | 1.45 ± 0.13 | 1.87 ± 0.035 |
| TQTGLLQDLEEAKSFQD [RPC82] | 2.27 ± 0.25 | 2.46 ± 0.12 | 2.13 ± 0.14 | 2.59 ± 0.11 |
| DSMLFVFGFRANKMRQD [SMC4] | 2.27 ± 0.072 | 2.24 ± 0.08 | 2.08 ± 0.12 | 2.7 ± 0.057 |
| DNWNAPLIMATCGSKGS [RPO31] | 2.57 ± 0.2 | 2.4 ± 0.11 | – | 2.43 ± 0.075 |
| KKIRNVPVRDGVTIEFS [RPL9A] | 2.59 ± 0.11 | 2.55 ± 0.15 | 2.43 ± 0.16 | 3.21 ± 0.092 |
| ILPDSLNLDSLLVDQKQ [SMD1] | 3.29 ± 0.098 | 3.01 ± 0.085 | 3.21 ± 0.074 | 3.09 ± 0.06 |
| MAKLNECPLDPGGYFIV [RET1] | 2.87 ± 0.11 | 3.28 ± 0.091 | 2.83 ± 0.086 | 3.23 ± 0.099 |
| NDNDITVKENESDSKLQ [UBP6] | 3.48 ± 0.12 | 3.24 ± 0.096 | 3.15 ± 0.071 | 3.35 ± 0.081 |
| KVKNFGVWVRYDSRSGT [RPL20A] | – | 2.74 ± 0.1 | – | 2.55 ± 0.24 |
| NLYDGAEHKYMPYTINE [BRR2] | 3.08 ± 0.071 | 3.05 ± 0.071 | 3.13 ± 0.048 | 3.28 ± 0.062 |
| VLQKVIEWAEHHRDSNF [SKP1] | 3.08 ± 0.078 | 3.14 ± 0.063 | 3.04 ± 0.049 | 3.25 ± 0.062 |
| SVKDYRPAEETEAQAEP [RPS3] | 2.76 ± 0.065 | 3.07 ± 0.068 | 3.11 ± 0.041 | 2.93 ± 0.043 |
| NGGNSVITLAEYEKRNH [SRP68] | 3.57 ± 0.12 | 3.28 ± 0.14 | 3.44 ± 0.1 | 3.38 ± 0.12 |
| KKNDEVSKPAFSFGAKA [YJL041W/NSP1] | 3.12 ± 0.14 | 3.02 ± 0.15 | 2.96 ± 0.094 | 3.07 ± 0.099 |
| CDLDFPLRENTNVLDVK [YDL116W/NUP84] | 2.72 ± 0.065 | 2.36 ± 0.055 | 2.36 ± 0.077 | 2.56 ± 0.037 |
| PNGHISTKKIQVATKYA [YMR129W/POM152] | 1.86 ± 0.082 | 2.24 ± 0.05 | 1.75 ± 0.067 | 2 ± 0.043 |
| ILVGGTLKDYQIKGLQW [SNF2] | 2.99 ± 0.076 | 2.83 ± 0.077 | 3.01 ± 0.056 | 3.16 ± 0.047 |
| VKNVKNSDLEFNTFWDE [ARP9] | 3.08 ± 0.088 | 3.13 ± 0.14 | 3.53 ± 0.11 | 3.46 ± 0.084 |
| RLPTFLKHKSICSCVNR [RPP1] | 1.84 ± 0.086 | 2.24 ± 0.11 | 1.98 ± 0.13 | 2.83 ± 0.08 |
| SRRFKNGFQTGSAKATS [RPL37B] | 3.13 ± 0.078 | 3.12 ± 0.087 | 3.37 ± 0.096 | 3.17 ± 0.059 |
